Laboratory results published in PMC8537947, “Improved Radiolytic Stability of a ^68Ga-labelled Collagelin Analogue for the Imaging of Fibrosis” (Pharmaceuticals, 2021).
Bridge positions count the residues as written; N and C are the ends. Square brackets hold non-standard residues; d marks the D form. Peptide text beside a SMILES is read from it. * marks the point of attachment. NOTA = O=C(O)CN1CCN(CC(=O)O)CCN(CC(=O)*)CC1; Nle = CCCC[C@H](N)C(=O)O; AEEA = NCCOCCOCC(=O)O

What was measured:
in vivo = conditions: female, BALB/c, mouse, iv, total radioactivity
Experimental: The animals (BALB/c female mice, n = 6) were administered with carbon tetrachloride (CCl4) formulated in a corn oil solution (20%, 0.5 mg per gram of body weight) into the lower side of the abdomen three times a week for three weeks. The wellbeing of the animals was monitored for 30 min after the injection and once per day afterwards. The development of liver fibrosis was confirmed by post-mortem Sirius Red staining of the PFA liver biopsies.
Healthy mice (n = 4, 19.6 ± 1.0 g) and mice with CCl4 induced liver fibrosis (n = 5, 21.55 ± 1.12 g) were intravenously administered with [^68Ga]Ga-NO2A-[Nle^13]-Col (5.2 ± 2.1 MBq, 0.31 ± 0.09 ug and 6.1 ± 2.1 MBq, 0.35 ± 0.08 ug) and the tracer organ distribution was studied after a 60 min incubation ex vivo (Table S1). The weight of the excised organs of interest (blood, heart, lung, liver, pancreas, spleen, kidney, intestines, muscle, brain) was noted and the radioactivity was measured using an automated gamma counter (2480 Wizard2^TM, PerkinElmer, Waltham, MA, USA) with a correction for dead-time and radioactivity decay.

[1] = design: species or system human
Source text: The rat SUVs were translated into a percentage of injected activity (%IA, Equation (3)) for human organs according to Equation (3) (Table S3), where SUVA is the SUVs of the rat organs; gorgan and kgTBweight are, respectively, standard organ weight and standard total body weight of a human. The standard organ masses and total-body weight values were obtained from the OLINDA software (organ level internal dose assessment code, Vanderbilt University, USA, 2007). (3) %IAOrganhuman=SUVA∗gorgan/kgTBweighthuman The %IA values were decay corrected to the animal termination time point at 5, 10, 30, 40, 60, and 120 min post administration and plotted as a function of time. The area under the curve for each organ was integrated using the trapezoid method assuming a simple exponential decay to eternity after the last point. The derived time-integrated activity coefficient (TIAC) for each organ, which is equal to the number of disintegrations (MBq-h/MBq) and dose rate S-values extracted from the Medical Internal […] (MIRD) pamphlet, was used for the computation of organ and whole-body effective doses (mSv/MBq) in humans in the OLINDA/EXM software package (Version 1.1, Vanderbilt University).

CCCC[C@@H]1NC(=O)[C@H](C(C)C)NC(=O)[C@H](CCCNC(=N)N)NC(=O)CNC(=O)[C@@H]2CCCN2C(=O)[C@@H](NC(=O)COCCOCCNC(=O)CN2CCN(CC(=O)O)CCN(CC(=O)O)CC2)CSSC[C@@H](C(=O)O)NC(=O)[C@@H]2CCCN2C(=O)CNC(=O)[C@H](CCC(=O)O)NC(=O)[C@H](CC(=O)O)NC(=O)[C@H](CC(=O)O)NC(=O)CNC(=O)[C@H](CC(C)C)NC(=O)[C@H](Cc2c[nH]cn2)NC(=O)[C@H](CC(C)C)NC(=O)CNC(=O)[C@H](Cc2c[nH]cn2)NC1=O [[^68Ga]Ga-NO2A-[Nle^13]-Col, [^68Ga]Ga-NOTA-PEG2-c[CPGRVNleHGLHLGDDEGPC], metal not drawn] ({NOTA-AEEA}-CPGRV[Nle]HGLHLGDDEGPC-OH; disulfide 1-18)
SUV at 1 h (in vivo; 5.2 MBq, SUV lungs (LU)): 0.0679 SUV | SUV at 1 h (in vivo; 6.1 MBq, SUV kidneys (KI)): 2.12 SUV | PET/CT examinations per year [1]: 4-5 | administration per year allowed by bone marrow absorbed dose [1]: 8000-10,000 MBq per year | dose of all organs other than kidney [1]: lower than 0.02 mSv/MBq | dose of the remaining organs [1]: less than 0.009 mSv/MBq | estimated absorbed dose, spleen [1]: 0.003 mGy/MBq
